# Test results from article PMC4947154, “Structural basis of transcobalamin recognition by human CD320 receptor” (Nature Communications, 2016).
# T1: CD320 extracellular domain, residues 53-199 (crystallization construct) (human, UniProt Q9NPF0 53-199)
# T1 construct: CD320 (transcobalamin receptor), human, residues 53-199 of the extracellular domain; native secretion signal replaced with a Melittin secretion signal; Density seen for LDLR-A1 residues 53-89 and LDLR-A2 residues 129-171; none for the EGF-like domain (90-128); also called N-terminal 22 amino acid deletion of the receptor; not shown: His9, N-terminal, cleaved; MBP, N-terminal, cleaved
# T1 sequence (looked up): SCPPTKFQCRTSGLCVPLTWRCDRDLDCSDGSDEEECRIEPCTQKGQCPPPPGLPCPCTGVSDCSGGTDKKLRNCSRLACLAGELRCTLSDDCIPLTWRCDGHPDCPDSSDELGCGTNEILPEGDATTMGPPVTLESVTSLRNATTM
# B1: MBP-tagged, biotinylated CD320 LDLR-A2 domain (residues 125-199, Avi Tag) (domain or fragment)
# chain: not shown
# modifications: biotin on the Avi Tag (BirA)
# notes: CD320, human, LDLR type A domain 2 construct, residues 125-199; source: Sf21 insect cells (Multibac baculovirus), secreted, purified (Ni-NTA, no MBP cleavage), biotinylated with BirA; not shown: His9, N-terminal, kept; MBP, N-terminal, kept
# B2: human transcobalamin (holo-TC, cyanocobalamin-bound) (natural protein, UniProt P20062 19-427, looked up)
# chain: EMCEIPEMDSHLVEKLGQHLLPWMDRLSLEHLNPSIYVGLRLSSLQAGTKEDLYLHSLKLGYQQCLLGSAFSEDDGDCQGKPSMGQLALYLLALRANCEFVRGHKGDRLVSQLKWFLEDEKRAIGHDHKGHPHTSYYQYGLGILALCLHQKRVHDSVVDKLLYAVEPFHQGHHSVDTAAMAGLAFTCLKRSNFNPGRRQRITMAIRTVQEEILKAQTPEGHFGNVYSTPLALQFLMTSPMRGAELGTACLKARVALLASLQDGAFQNALMISQLLPVLNHKTYIDLIFPDCLAPRVMLEPAAETIPQTQEIISVTLQVLSLLPPYRQSISVLAGSTVEDVLKKAHELGGFTYETQASLSGPYLTSVMGKAAGEREFWQLLRDPNTPLLQGIADYRPKDGETIELRLVSW
# notes: transcobalamin (TC), human, residues 1-409, cDNA GenBank BC001176.1 harbouring R209Q; native secretion signal replaced with a Melittin secretion signal; Purified in the presence of excess cyanocobalamin (Cbl-CN), so the Cbl site is occupied; R209Q came with the bought cDNA clone (ImaGenes); also called tag-less TC; full-length TC; source: Sf21 insect cells (Multibac baculovirus), secreted, …
# What was measured:
# [1] = biological target: B2; assay: ELISA; solid-phase binding assay: biotinylated MBP-tagged receptor on Neutravidin plates, tag-less TC serially diluted in 20 mM Tris pH 7.5, 0.5 mM CaCl2, 150 mM NaCl, 0.05% Tween-20, 1 h RT; TC detected with antibody A-5; single-site fit, n=5; details: both partners purified
# [2] = biological target: T1, CD320 extracellular domain, residues …; assay: crystal structure; co-crystals of the purified complex, sitting drop, 20 °C; details: both partners purified
Binder,Kd [1] [nM],stoichiometry N [2]
B1,~10,
B2,,1 TC:CD320
